Assays:
[1] = target: T1, HLA-A*02:01 on T2 cells (human, UniProt P04439 25-302 at identity 0.94)); assay: MHC class I expression stabilization test on T2 cells, peptide 100 µg/mL, FITC anti-HLA-A02 (BB7.2), flow cytometry; control in the column of SEQ ID No: 4
T1 construct: whole, on cells; Empty MHC class I on the cell surface that is stabilized by an added peptide; the text gives HLA-A*02:01
T1 MHC heavy: not shown

[2] = target: T1, HLA-A*02:01 on T2 cells; assay: MHC class I expression stabilization test on T2 cells, peptide 100 µg/mL, FITC anti-HLA-A02 (BB7.2), flow cytometry; control in the column of SEQ ID No: 6
[3] = target: T1, HLA-A*02:01 on T2 cells; assay: MHC class I expression stabilization test on T2 cells as in Example 2, flow cytometry
[4] = target: T1, HLA-A*02:01 on T2 cells; assay: MHC class I expression stabilization test on T2 cells, flow cytometry
[5] = target: T1, HLA-A*02:01 on T2 cells; assay: MHC class I expression stabilization test on T2 cells, peptide 100 µg/mL, FITC anti-HLA-A02 (BB7.2), flow cytometry; control in the column of SEQ ID No: 5

B1: MAGE-1 161-169 peptide (peptide)
peptide: EADPTGHSY
notes: Negative control peptide for HLA-A02; also called HLA-A02-negative control; Negative control
mean fluorescence intensity (MFI) solvent ratio [1]: 1 ratio to solvent | mean fluorescence intensity (MFI) solvent ratio [2]: 1 ratio to solvent | mean fluorescence intensity (MFI) solvent ratio [3]: 1 ratio to solvent | binding result [4]: no binding | mean fluorescence intensity (MFI) solvent ratio [5]: 1 ratio to solvent

Source: patent publication US20160166666A1, “TUMOR ANTIGEN PEPTIDE” (Sumitomo Dainippon Pharma Co., Ltd., priority 2013, published 2016)
